Experimental data reported in patent publication KR20140018819A (dated 2014).
Numbering of substitutions follows the chain as printed.

T1: TM4SF5 (transmembrane 4 L six family member 5) 단백질 (human, UniProt O14894 1-197)
T1 sequence (looked up): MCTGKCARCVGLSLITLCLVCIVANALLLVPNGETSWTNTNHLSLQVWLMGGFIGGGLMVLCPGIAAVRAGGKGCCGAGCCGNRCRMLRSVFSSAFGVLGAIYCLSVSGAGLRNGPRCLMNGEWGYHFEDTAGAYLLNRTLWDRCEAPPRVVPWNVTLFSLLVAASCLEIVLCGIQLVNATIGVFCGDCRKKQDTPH

B1: 항-TM4SF5 항체 #1 (scFv-Fc) (Fc fusion)
VH: EVQLQQFGAELVRPGASVTLSCKASGYTFTDYEMHWVKQTPVHGLEWIGAIDPETGGTAYNQKFKGKAILTADKSSSTAYMELRSLTSEDSAVYFCARLTLFYGNYDWPFDVWGTGTSVTVSS
VL: DIVMTQSQKFMSTSVGDRVSITCKASQNVRTAVAWYQQKPGQSPKLLIYWASTRHTGVPDRFTGSGSGTDFTLTISNVQSEDLADYFCQQYSSYPFTFGSGTKLEIK
B2: 항-TM4SF5 항체 #27 (scFv-Fc) (Fc fusion)
VH: QVQLQQFGAELVRPGASVTLSCKASGYTFTDYEMHWVKQTPVHGLEWIGAIDPETGGTAYNQKFKGKAILTADKSSSTAYMELRSLTSEDSAVYYCTRPYLGYWGQGTTVTVSS
VL: DAVVTQTPLSLPVSLGDQASISCRSSQSLVHSNGNTYLHWYLQKPGQSPKLLIYKVSNRFSGVPDRFSGSGSGTDFTLKISRVEAEDLGVYYCFQGSHIPLTFGAGTKLELK
B3: 항-TM4SF5 항체 #79 (scFv-Fc) (Fc fusion)
VH: B2 VH with Q1G, F7S, T19K, R98V, P99Y, Y100G, G102A, T109L, S114A
VL: B2 VL with A2V, V4M, Y92F, F94S, G96N, S97T, I99V, L101Y, A105G

Target: T1, TM4SF5 (transmembrane 4 L six family …)
Assay: cell-based or functional assay

Binder	간암세포주의 침윤 억제 (Transwell assay, Tp 세포, 항체 20㎍/㎖, 48시간)
B1	83%
B2	56%
B3	49%
